T1: canine CD20 (UniProt Q3C2E2 1-297)
T1 chain: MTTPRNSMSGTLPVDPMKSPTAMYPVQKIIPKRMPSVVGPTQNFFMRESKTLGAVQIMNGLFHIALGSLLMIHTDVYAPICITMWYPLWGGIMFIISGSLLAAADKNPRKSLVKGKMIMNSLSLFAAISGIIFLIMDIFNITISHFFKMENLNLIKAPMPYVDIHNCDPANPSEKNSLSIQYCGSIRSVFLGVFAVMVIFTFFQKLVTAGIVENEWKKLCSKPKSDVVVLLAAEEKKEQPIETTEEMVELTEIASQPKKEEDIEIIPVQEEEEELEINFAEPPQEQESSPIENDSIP

T2: canine CD20 (canine, UniProt Q3C2E2 1-297)
T2 chain: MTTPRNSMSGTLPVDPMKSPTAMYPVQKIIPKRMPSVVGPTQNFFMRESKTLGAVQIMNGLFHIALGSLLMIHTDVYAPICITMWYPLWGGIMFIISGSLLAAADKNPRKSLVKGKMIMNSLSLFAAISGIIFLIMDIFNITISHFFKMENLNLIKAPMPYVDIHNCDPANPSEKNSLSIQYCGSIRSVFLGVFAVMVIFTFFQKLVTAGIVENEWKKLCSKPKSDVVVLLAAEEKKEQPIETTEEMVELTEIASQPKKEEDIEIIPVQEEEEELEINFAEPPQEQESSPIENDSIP


How the values were obtained:
canine CD20 [1] = target: T1, canine CD20; test: flow cytometry, cCD20-expressing MDCK II cells; apparent Kd (EC50 of binding)
canine CD20 [2] = target: T2, canine CD20; test: cell-based or functional assay

Binder	Kd (canine CD20 [1])	ADCC EC50 (canine CD20 [2])	ADCC Maximum killing (%) (canine CD20 [2])	CDC EC50 (canine CD20 [2])	CDC Maximum killing (%) (canine CD20 [2])
PMX003 mAb (antibody, V domains shown) VH: EVQLVESGGDLVKPGGSLRLSCVASGITFSRYHMSWVRQAPGKGLQWVAYINSGGSSTSYPDAVKGRFTISRDNAKNTLYLQMDSLRAEDTALYYCTTFDYWGQGTLVTVSS VL: SYVLTQLPSKNVTLKQPAHITCGGDNIGSKSVHWYQQKLGQAPVLIIYYDSRRPTGIPERFSGANSGNTATLTISGALAEDEADYYCQVWDSSANVFGGGTHLTVLG	1.7 nM	0.89 nM	34%	25 nM	90.4%
PMX070 (antibody, V domains shown) VH: EMQLVESGGDLVKPGGSLRLSCVASGFTFSRYHMSWVRQAPGKGLQWVAYINSGGSPTNYADAVKGRFTISRDNAKNTLYLQMNSLRAEDTAVYYCTTYDQWGQGTLVTVSS VL: SYVLTQLPSKSVTLKQPAHITCGGDNIGSKSVHWYQQKLGQAPVLIIYYDSSRPTGIPERFSGANSGNTATLTISGALAEDEADYYCQVWDTSANVFGGGTHLTVL	1.1 nM	0.29 nM	51%	11.2 nM	97.1%
PMX115 mAb (antibody, V domains shown) VH: EMQLVESGGALVKPGGSLRLSCVASGFTFRRYHMSWVRQAPGQGLQWVAYIDSDGSPTSYGDSVKGRFTISRDNAKNTLFLQMNSLRVDDTAVYYCTTLDYWGRGTLVTVSS VL: SYVLTQVPSKSVTLKQPAHITCGGDNIGGKSVHWYQQKLGQAPLLIIYYDTRRPTGIPERFSGANSGNTATLTISRALAEDEADYYCQVWDSSGNVFGGGTHLTVI	0.8 nM				
